Source: patent US20180022822A1, “NOVEL ANTI-FIBROBLAST ACTIVATION PROTEIN (FAP) BINDING AGENTS AND USES THEREOF” (Mabimmune Diagnostics AG, priority 2016, published 2018)

Assays:
[1] = target: T1, rhFAP and FAP SB9 oligopeptidase homologues (rhDPPIV, rhPOP/PREP, rhDPP8, rhDPP9) (Homo sapiens, UniProt Q12884); assay: ELISA binding to SB9 oligopeptidase family enzymes; details: sandwich ELISA affinity (EC50) assays
T1 construct: purchased Sino Biologicals 10464-H07H
T1 sequence (Q12884 26-760 limits assumed): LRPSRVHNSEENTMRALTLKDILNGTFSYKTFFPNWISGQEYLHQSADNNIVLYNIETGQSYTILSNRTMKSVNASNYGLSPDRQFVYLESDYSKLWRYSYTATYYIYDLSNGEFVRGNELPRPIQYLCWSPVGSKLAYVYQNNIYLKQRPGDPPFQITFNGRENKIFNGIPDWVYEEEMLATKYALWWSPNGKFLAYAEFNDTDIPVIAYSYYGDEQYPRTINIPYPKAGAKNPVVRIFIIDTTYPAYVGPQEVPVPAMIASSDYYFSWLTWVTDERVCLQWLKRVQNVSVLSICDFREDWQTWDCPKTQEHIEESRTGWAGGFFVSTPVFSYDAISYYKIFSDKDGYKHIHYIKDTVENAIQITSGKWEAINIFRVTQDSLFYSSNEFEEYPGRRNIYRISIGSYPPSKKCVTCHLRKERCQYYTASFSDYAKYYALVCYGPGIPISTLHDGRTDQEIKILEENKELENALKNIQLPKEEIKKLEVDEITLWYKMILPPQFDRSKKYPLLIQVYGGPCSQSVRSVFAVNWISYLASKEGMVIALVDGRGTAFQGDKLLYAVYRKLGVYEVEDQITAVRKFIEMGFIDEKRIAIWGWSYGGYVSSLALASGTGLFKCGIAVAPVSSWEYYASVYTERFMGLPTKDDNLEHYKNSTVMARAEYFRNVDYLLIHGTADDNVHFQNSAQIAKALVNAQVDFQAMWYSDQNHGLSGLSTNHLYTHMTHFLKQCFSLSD
Procedure: To determine the binding efficiency and inhibitory ability of NI-206.82C2 against other members of the SB9 oligopeptidase family that have sequence similarity to FAP, indirect ELISA and inihibiton assays were performed on active enzyme targets. Active recombinant human enzymes evaluated in this assay include: Fibroblast Activation Protein (FAP; Sino Biologicals, 10464-H07H), Dipeptidyl Peptidase IV (DPPIV, BPS Bioscience 80040), Dipeptidyl Peptidase 8 (DPP8, BPS Bioscience 80080), Dipeptidyl Peptidase 9 (DPP9, BPS Bioscience 80080), and Prolyl Oligopeptidase/Prolyl Endopeptidase (POP/PREP, BPS Bioscience 80105). Each recombinant peptidase was expressed with a purification tag, and attached to the 96 well ELISA plate using either a mouse anti-Histidine antibody (CloneTech), or a mouse anti-Glutathione S-transferase (GST, Sino Biologicals, 111213-MM02) tag antibody. Each enzyme was validated to bind and remained active on the ELISA plate using enzyme specific fluorogenic substrates. H-Gly-Pro-AMC (ATT Bioquest, 13450) was used to validate the presence and activity of DPP4, DPP9, and DPP8. […] Following a washing step, bound antibody was detected using 3,3′,5,5′-Tetramethylbenzidine (TMB) substrate. The reaction was stopped after 10 minutes by adding 2N H2SO4 and the resulting change in optical density was quantified using an ELISA plate reader at […] absorbance (FIG. 7 E).

[2] = target: T2, rhFAP and FAP homologues (DPP4, DPP8, DPP9, POP/PREP) (Homo sapiens, UniProt Q12884); assay: inhibition assays on SB9 oligopeptidase family enzymes; assay type: biochemical; details: 0-1000 nM antibody
T2 construct: purchased Sino Biologicals 10464-H07H
T2 sequence (Q12884 26-760 limits assumed): T1 sequence (Q12884 26-760 limits assumed)
Procedure: To determine the inhibitory ability of the antibody a black 96 well plate was blocked for 1 h with blocking buffer. NI-206.82C2 was pipetted at concentrations of 1000, 50, 10, 3.03, 1.01, 0.031, 0.001, and 0 nM in PBS into the according wells. The enzymes were added at a concentration of 0.2 nM. Finally, fluorgenic substrates were then added to the well at a concentration equal to the Michaelis constant (Km) and the velocity of the substrate cleavage was quantified by fluorescence at 360 nm excitation and 460 nm emission. H-Gly-Pro-AMC (AAT Bioquest, 13450) was used for DPP4, DPP9, and DPP8. Z-Gly-Pro-AMC (BaChem, 11145) was used to evaluate the activity of POP/PREP. FAP activity was assessed using DQ-gelatin (Life Technologies, D12054) and cleavage quantified at 495 nm excitation and 515 nm emission.

[3] = test system: human invasive ductal carcinoma and invasive lobular carcinoma sections; assay: confocal immunofluorescence on human carcinoma cryosections; details: Cy3 labelled antibody
Procedure: NI-206.82C2 was labelled with Cyanine 3 for fluorescent imaging (Cy3 conjugation kit: Innova Biosciences, 340-0030) and antibody labelling was validated using a spectophotometer. Cryosections from human invasive ductal carcinoma tissues (FIG. 9, A) and invasive lobular carcinoma (FIG. 9, B) were fixed for 5 minutes in ice cold acetone and allowed to dry for 10 minutes before washing in PBS. The sections were then incubated for 1 hr at room temperature in 5% BSA in PBS. The tissue sections were then incubated with Cyanine 3 prelabelled antibodies overnight at 4° C., and then washed three times in PBS before incubation with DAPI at 0.5 μg/mL. Sections were then washed three additional times in PBS and mounted in Lisbeth's mounting medium before imaging on a SP8 confocal microscope (Leica Microsystems).

recombinant human FAP = target: T3, recombinant human FAP (Homo sapiens, UniProt Q12884); assay: mechanism of inhibition of rhuFAP-mediated PEP (Z-Gly-Pro-AMC) cleavage; assay type: biochemical; details: 0-1000 nM antibody, 20-100 μM Z-Gly-Pro-AMC; Lineweaver-Burk
T3 construct: purchased Sino Biologicals 10464-H07H
T3 sequence (Q12884 26-760 limits assumed): T1 sequence (Q12884 26-760 limits assumed)
Procedure: A black flat bottom standard 96-well ELISA plate was blocked for 1 hr at 37° C. using sterile blocking buffer: 5% bovine serum albumin (BSA) in phosphate buffered saline (PBS). 10 μL of recombinant human FAP solution: 0.4 nM recombinant human FAP (Sino Biologicals, 10464-H07H), in 225 mM Sodium phosphate buffer, pH 7.4) was added to each well. Then, 80 μL of NI-206.82C2 at the indicated concentrations in PBS were added to the wells incubated for 1 hr at 37° C. Then, 10 μL of fluorogenic substrate solution (Z-Gly-Pro-AMC in 40% methanol and 60% 25 […]) was added to each well. The fluorescence intensity was measured at 360 nm excitation and 460 nm emission every 3 min over a total reading time of 2 hr.

binding to human invasive ductal and invasive lobular carcinoma sections [3]: specifically binds
type of inhibition of FAP-mediated PEP cleavage (recombinant human FAP): non-competitive inhibitor
B1: NI-206.82C2: human-derived recombinant anti-FAP antibody; VH SEQ ID NO: 2 or 4 (PIMC), VL SEQ ID NO: 6 (antibody, V domains shown)
VH: QVQLQQSGPGLVKPSQTLSLTCAISGDSVSSNSVTWNWIRQSPSRGLEWLGRTYYRSKWYNDYAVSVKGRITINPDTSKNQFYLQLKSVTPEDAAVYYCARDSSILYGDYWGQGTLVTVSS
VL: QAVLTQPSSLSASPGASASLTCTLPSGINVGTYRIFWFQQKPGSPPQYLLSYKSDSDNHQGSGVPSRFSGSKDASANAGILLISGLQSEDEADYYCMIWHSSAWVFGGGTKLTVL
binding selectivity for rhFAP over SB9 oligopeptidase homologues [1]: selectively binds to recombinant human FAP (rhFAP) but not FAP SB9 oligopeptidase homologues
inhibition selectivity for rhFAP over FAP homologues [2]: selectively inhibits rhFAP, but not FAP homologues
